# Test results published in the Human Domainome abundance scans (Beltran et al. 2025).
# ± gives the uncertainty stated by the source.
# B1: Transcription factor SOX-4, residues 60 to 127; numbered along this chain, Q06945 (parent)
# chain: KRPMNAFMVWSQIERRKIMEQSPDMHNAEISKRLGKRWKLLKDSDKIPFIREAERLRLKHMADYPDYK
# Variants of: B1
# Experiment: abundance fitness (aPCA) (normalised: wild type 0, dead -1); higher = more abundant; growth selection in yeast, the domain comes from the species named
# Settings: Homo sapiens
row,Variant,abundance fitness
1,P3W,-0.561 ± 0.077
2,P3R,-0.149 ± 0.039
3,K39N,-0.19 ± 0.045
4,K39S,-0.027 ± 0.036
5,K39M,-0.144 ± 0.036
6,K1E,-0.317 ± 0.12
7,K1L,-0.347 ± 0.21
8,N27Y,-0.179 ± 0.052
9,N27M,-0.043 ± 0.054
10,E20N,-0.478 ± 0.2
11,E20R,-0.364 ± 0.083
12,E20W,-0.626 ± 0.1
13,E20P,-0.524 ± 0.12
14,E20A,-0.265 ± 0.098
15,S44T,-0.134 ± 0.12
16,S44M,-0.243 ± 0.1
17,S44V,-0.164 ± 0.066
18,I50W,-0.633 ± 0.15
19,I50C,-0.51 ± 0.2
20,K46A,-0.937 ± 0.13
21,K46R,-0.237 ± 0.04
22,K46D,-0.524 ± 0.072
23,M19P,-0.785 ± 0.26
24,M19N,-0.396 ± 0.057

row,Variant,abundance fitness
1,M19V,-0.091 ± 0.046
2,M61N,-0.104 ± 0.13
3,M61Q,0.092 ± 0.079
4,D45C,-0.758 ± 0.25
5,E29D,-0.074 ± 0.062
6,E29A,-0.199 ± 0.071
7,E29S,-0.539 ± 0.094
8,E29K,-0.691 ± 0.24
9,S22T,-0.326 ± 0.094
10,S22L,-0.458 ± 0.057
11,Y64T,0.059 ± 0.065
12,Y64R,0.035 ± 0.068
13,Y64E,0.006 ± 0.083
14,M8W,-0.204 ± 0.055
15,M8G,0.025 ± 0.041
16,M8P,-1.01 ± 0.29
17,M8I,-0.181 ± 0.044
18,P48T,-0.346 ± 0.071
19,P48F,-0.351 ± 0.076
20,L40Y,-0.331 ± 0.08
21,L40P,-1.29 ± 0.41
22,L40C,-0.046 ± 0.043
23,R55C,-0.292 ± 0.056
24,R55M,-0.2 ± 0.091

row,Variant,abundance fitness
1,R55S,-0.309 ± 0.045
2,R55A,-0.103 ± 0.053
3,Q12R,-0.267 ± 0.042
4,Q12N,-0.015 ± 0.099
5,Q21V,-0.2 ± 0.061
6,Q21I,-0.128 ± 0.088
7,S11H,-0.703 ± 0.088
8,S11E,-0.031 ± 0.11
9,S11V,-0.529 ± 0.058
10,A6V,-0.507 ± 0.054
11,H60R,-0.19 ± 0.047
12,H60D,0.005 ± 0.075
13,H60A,-0.055 ± 0.045
14,H60I,-0.408 ± 0.2
15,H60K,0.023 ± 0.1
16,P23F,-0.97 ± 0.12
17,P23M,-0.817 ± 0.077
18,P23I,-0.568 ± 0.074
19,P23V,-0.634 ± 0.06
20,K68E,-0.155 ± 0.11
21,K68S,-0.17 ± 0.096
22,K68V,-0.43 ± 0.34
23,L34E,-0.639 ± 0.27
24,L34G,-0.973 ± 0.14

row,Variant,abundance fitness
1,R16I,-0.216 ± 0.053
2,R16G,-0.254 ± 0.04
3,K32E,0.183 ± 0.044
4,P65S,0.102 ± 0.062
5,P65D,0.103 ± 0.18
6,P65M,-0.193 ± 0.089
7,P65A,-0.267 ± 0.083
8,W38Q,-1.02 ± 0.24
9,W38N,-0.874 ± 0.094
10,W38L,-0.989 ± 0.096
11,W38F,-1.08 ± 0.16
12,W38Y,-0.548 ± 0.089
13,K17F,-0.353 ± 0.15
14,K17I,-0.178 ± 0.14
15,K17W,-0.87 ± 0.13
16,R33C,0.083 ± 0.082
17,R33N,0.126 ± 0.1
18,R33V,0.339 ± 0.074
19,R33P,-0.922 ± 0.14
20,D66A,-0.186 ± 0.066
21,D66W,-0.325 ± 0.13
22,D66E,0.102 ± 0.085
23,D66R,0.015 ± 0.078
24,L41F,-0.684 ± 0.2

row,Variant,abundance fitness
1,L41T,-0.788 ± 0.12
2,M25S,-0.416 ± 0.086
3,M25Y,-0.679 ± 0.21
4,M25V,-0.125 ± 0.065
5,M25T,-0.189 ± 0.078
6,M25I,0.004 ± 0.4
7,M25Q,-0.595 ± 0.15
8,D43V,-0.262 ± 0.039
9,D43M,-0.062 ± 0.056
10,R15E,-0.354 ± 0.079
11,R15K,-0.022 ± 0.052
12,R15C,-0.357 ± 0.049
13,R15Q,-0.3 ± 0.069
14,K36L,-0.105 ± 0.057
15,S31L,-0.045 ± 0.041
16,S31G,-0.189 ± 0.03
17,M4F,-0.033 ± 0.11
18,M4L,-0.105 ± 0.053
19,M4Q,-0.412 ± 0.11
20,G35C,0.095 ± 0.045
21,G35W,0.142 ± 0.058
22,A62D,0.015 ± 0.046
23,A62H,-0.175 ± 0.067
24,I13F,-0.21 ± 0.18

row,Variant,abundance fitness
1,I13T,-0.235 ± 0.095
2,I13K,-0.195 ± 0.11
3,I13H,0.027 ± 0.23
4,I13R,-0.401 ± 0.062
5,A53Y,-0.347 ± 0.12
6,A53Q,-0.898 ± 0.17
7,A53E,-0.52 ± 0.084
8,Y67T,-0.14 ± 0.08
9,Y67R,0.048 ± 0.11
10,Y67W,-0.296 ± 0.11
11,I47F,-0.241 ± 0.051
12,I47N,-0.322 ± 0.05
13,I47E,0.095 ± 0.059
14,K59P,-0.178 ± 0.089
15,K59M,-0.048 ± 0.055
16,K59D,-0.13 ± 0.054
17,K59N,-0.118 ± 0.061
18,I18E,-0.63 ± 0.12
19,R2W,-0.164 ± 0.095
20,R2A,-0.08 ± 0.093
21,R2N,-0.154 ± 0.16
22,D63W,-0.179 ± 0.061
23,D63V,-0.224 ± 0.038
24,D63A,-0.074 ± 0.051

row,Variant,abundance fitness
1,L58M,-0.043 ± 0.065
2,L58E,0.091 ± 0.058
3,L58V,-0.046 ± 0.039
4,L58A,0.013 ± 0.05
5,N5R,-0.879 ± 0.19
6,N5T,0.095 ± 0.047
7,E54L,-0.501 ± 0.045
8,E54K,-0.369 ± 0.06
9,H26F,-0.713 ± 0.43
10,D24Q,-0.114 ± 0.063
11,D24C,-0.335 ± 0.061
12,L56V,-0.286 ± 0.063
13,L56I,-0.149 ± 0.093
14,R57S,-0.309 ± 0.08
15,R37Q,-0.093 ± 0.21
16,R37V,-0.2 ± 0.06
17,R37M,-0.067 ± 0.13
18,E52N,-0.893 ± 0.19
19,E52W,-0.58 ± 0.14
20,E52H,-0.726 ± 0.3
21,E52V,-0.556 ± 0.065
22,V9A,-0.473 ± 0.085
23,V9I,0.066 ± 0.057
